Measurements: patent US20260274910A1, “SINGLE FUSION PROTEIN AND PHARMACEUTICAL COMPOSITION” (MEDI&GENE INC., priority 2023, published 2026)

Columns and labels:
[1] = test system: SH-SY5Y dopaminergic neuron cell line; assay: Reactive oxygen in neuron cells under rotenone; type: cell-based; details: 1 µM rotenone + 100 nM test substance, 24 hours; compared with rotenone alone
Protocol: (§1) The SH-SY5Y dopaminergic neuron cell line was treated with 1 µM of a toxic substance, rotenone and 100 nM of each test substance simultaneously. After 24 hours, the MTT cell viability or the effect of reducing reactive oxygen was observed.

[2] = test system: MDA-MB-231 triple-negative breast cancer cell line; assay: MTT cell viability in breast cancer cells; type: cell-based; details: 1 μM, 48 hours; compared with Control (PBS), SEQ ID NO: 4 and SEQ ID NO: 5
Protocol: Next, the test substances, the fusion proteins (SEQ ID NO: 1, 2, 3, 7, 14, 15) and shortened sequences (SEQ ID NOs: 9, 10, 11, 12) were treated to MDA-MB-231 triple-negative breast cancer cell line at a concentration of 1 μM (Control: PBS) for 48 hours. Thereafter, the cells were washed with PBS once, and the cells were suspended in serum-free buffer. The MTT (3-[4,5-dimethylthiazol-2-yl]-2,5-diphenyltetrazolium bromide) substance was added thereto at 0.5 mg/ml and incubated at 37° C. for 2 hours. Then, they were washed with PBS once, and the cells were lysed with DMSO for 15 minutes. The solution was transferred to a new plate and the absorbance was measured at 590 nm using a microplate reader.

cAMP (cyclic AMP) = assay: cAMP level (hTRF) in undifferentiated 3T3-L1 cells; type: cell-based, mouse; details: undifferentiated 3T3-L1, 100 nM with 0.5 mM IBMX, 30 minutes; compared with Control and SEQ ID NO: 5
Protocol: To observe the functionality of the fusion proteins related to lipid metabolism, the 3T3-L1 mouse pre-adipocyte cell line was used as the cell line itself (undifferentiated) or by differentiating into adipocytes. Differentiation into the adipocytes was performed by inducing primary differentiation for the 3T3-L1 cells in a medium containing DMEM, 10% FBS, 10 μg/ml insulin, 0.5 mM IBMX (3-Isobutyl-1-methylxanthine), and 1 μM dexamethasone for 2 days, and inducing secondary differentiation with a medium containing DMEM, 10% FBS, and 10 μg/ml insulin for the remaining 4 days. The adipocytes in which differentiation was finally completed were treated with the test substances at a concentration of 100 nM for 30 hours (Control: PBS) and then used for each test.
Next, changes in cAMP (cyclic AMP), a signaling mediator contributing to lipolysis and energy metabolism were evaluated in the undifferentiated adipocytes. The undifferentiated cells were treated with the test substances at a concentration of 100 nM (Control: PBS) with 0.5 mM IBMX for 30 minutes. Thereafter, the level of cAMP was evaluated by the hTRF (Homogeneous Time Resolved Fluorescence) method (using CAMP Gs dynamic kit from Cisbio). As a result of the measurement, it was confirmed that the level of cAMP was higher in the groups treated with the fusion proteins (SEQ ID NOs: 1, 2, 3, 7, 13, 14, 15) and shortened sequences (sequences 9, 10, 11) compared with the Control and His tag-wild-type substance (1-81) (SEQ ID NO: 5) (FIG. 7).

MDA-MB-231 cell line = assay: Reactive oxygen generation (DCF-FA) in breast cancer cells; type: cell-based; details: 1 μM, 24 hours; compared with Control and SEQ ID NO: 5
Protocol: In addition, in order to examine generation of reactive oxygen that plays an important role in cancer cell death, each test substance was treated to the MDA-MB-231 cell line at a concentration of 1 μM (Control: PBS) for 24 hours. Then, the cells were stained with DCF-FA and their fluorescence values were observed and compared at 485/535 nm.

[3] = test system: SH-SY5Y dopaminergic neuron cell line; assay: MTT cell viability of neuron cells under rotenone; type: cell-based; details: 1 µM rotenone + 100 nM test substance, 24 hours; compared with rotenone alone
Protocol: as §1

ATP5B protein = ATP5B protein (Homo sapiens, UniProt P06576); assay: SPR binding ability test; details: ATP5B on CM5 chip, flow rate 50 μl/min, relative to control shortened sequence (SEQ ID NO: 12)
Protocol: In order to evaluate substitutable residues within a sequence, an SPR (surface plasma resonance) test was conducted. Specifically, the ATP5B protein was conjugated to a CM5 chip by amine-conjugation, and then the contact of each test substance was observed under the condition of a flow rate of 50 μl/min, and the refractive index was measured. Thereafter, by converting each binding unit, the binding ability was compared and evaluated. […] A decrease of 10% or more in binding ability was considered to indicate a negative effect of the substitution.

Chain of ATP5B protein (P06576 48-529, species assumed): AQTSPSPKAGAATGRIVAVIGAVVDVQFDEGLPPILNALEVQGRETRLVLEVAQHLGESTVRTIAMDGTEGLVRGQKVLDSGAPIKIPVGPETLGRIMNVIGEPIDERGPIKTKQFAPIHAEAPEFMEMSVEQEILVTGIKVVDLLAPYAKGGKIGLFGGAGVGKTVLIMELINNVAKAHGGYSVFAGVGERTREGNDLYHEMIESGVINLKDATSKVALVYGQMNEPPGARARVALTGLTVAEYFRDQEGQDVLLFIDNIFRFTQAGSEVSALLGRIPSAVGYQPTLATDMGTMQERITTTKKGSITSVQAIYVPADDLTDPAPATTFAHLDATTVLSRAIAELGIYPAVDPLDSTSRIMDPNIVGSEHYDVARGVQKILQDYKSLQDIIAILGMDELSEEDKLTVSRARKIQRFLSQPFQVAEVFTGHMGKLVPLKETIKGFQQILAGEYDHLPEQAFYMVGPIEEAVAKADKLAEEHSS

Substance | Binding (%) (ATP5B protein) | further results
SEQ ID NO: 9: Synthetic peptide: Shortened substance (1-60) (GSDQSENVDRGAGSIREAGGAFGKREQAEEERYFRAQSREQLAALKKHHEEEIVHHKKEI; listed as Homo sapiens) | – | Generation of reactive oxygen [1]: significantly inhibited; Cell viability (MTT) [2]: significantly low; Level of cAMP (cAMP (cyclic AMP)): higher; Reactive oxygen generation (MDA-MB-231 cell line): generated higher; Cell viability (MTT) [3]: significantly increased
SEQ ID NO: 10: Synthetic peptide: Shortened substance (1-47) GSDQSENVDRGAGSIREAGGAFGKREQAEEERYFRAQSREQLAALKK (listed as Homo sapiens) | – | Generation of reactive oxygen [1]: significantly inhibited; Cell viability (MTT) [2]: significantly low; Level of cAMP (cAMP (cyclic AMP)): higher; Reactive oxygen generation (MDA-MB-231 cell line): generated higher; Cell viability (MTT) [3]: significantly increased
SEQ ID NO: 11: Synthetic peptide: Shortened amino acid modified substance (10-49; H49K mutation introduced) RGAGSIREAGGAFGKREQAEEERYFRAQSREQLAALKKHK | – | Generation of reactive oxygen [1]: significantly inhibited; Cell viability (MTT) [2]: significantly low; Level of cAMP (cAMP (cyclic AMP)): higher; Reactive oxygen generation (MDA-MB-231 cell line): generated higher; Cell viability (MTT) [3]: significantly increased
SEQ ID NO: 12: Synthetic peptide: Shortened substance (8-35) VDRGAGSIREAGGAFGKREQAEEERYFR (listed as Homo sapiens) | 100.0% | Cell viability (MTT) [2]: significantly low
SEQ ID NO: 16: Shortened substance (8-35) amino acid Ala substituted (8) ADRGAGSIREAGGAFGKREQAEEERYFR | 101.4% | –
SEQ ID NO: 17: Shortened substance (8-35) amino acid Ala substituted (9) VARGAGSIREAGGAFGKREQAEEERYFR | 91.6% | –
SEQ ID NO: 18: Shortened substance (8-35) amino acid Ala substituted (10) VDAGAGSIREAGGAFGKREQAEEERYFR | 104.2% | –
SEQ ID NO: 19: Shortened substance (8-35) amino acid Ala substituted (11) VDRAAGSIREAGGAFGKREQAEEERYFR | 100.0% | –
SEQ ID NO: 20: Shortened substance (8-35) amino acid Ala substituted (13) VDRGAASIREAGGAFGKREQAEEERYFR | 98.5% | –
SEQ ID NO: 21: Shortened substance (8-35) amino acid Ala substituted (14) VDRGAGAIREAGGAFGKREQAEEERYFR | 98.8% | –
SEQ ID NO: 22: Shortened substance (8-35) amino acid Ala substituted (15) VDRGAGSAREAGGAFGKREQAEEERYFR | 99.3% | –
SEQ ID NO: 23: Shortened substance (8-35) amino acid Ala substituted (16) VDRGAGSIAEAGGAFGKREQAEEERYFR | 97.0% | –
SEQ ID NO: 24: Shortened substance (8-35) amino acid Ala substituted (17) VDRGAGSIRAAGGAFGKREQAEEERYFR | 168.7% | –
SEQ ID NO: 25: Shortened substance (8-35) amino acid Ala substituted (19) VDRGAGSIREAAGAFGKREQAEEERYFR | 89.6% | –
SEQ ID NO: 26: Shortened substance (8-35) amino acid Ala substituted (20) VDRGAGSIREAGAAFGKREQAEEERYFR | 68.0% | –
SEQ ID NO: 27: Shortened substance (8-35) amino acid Ala substituted (22) VDRGAGSIREAGGAAGKREQAEEERYFR | 94.0% | –
SEQ ID NO: 28: Shortened substance (8-35) amino acid Ala substituted (23) VDRGAGSIREAGGAFAKREQAEEERYFR | 102.3% | –
SEQ ID NO: 29: Shortened substance (8-35) amino acid Ala substituted (24) VDRGAGSIREAGGAFGAREQAEEERYFR | 100.5% | –
SEQ ID NO: 30: Shortened substance (8-35) amino acid Ala substituted (25) VDRGAGSIREAGGAFGKAEQAEEERYFR | 85.2% | –
SEQ ID NO: 31: Shortened substance (8-35) amino acid Ala substituted (26) VDRGAGSIREAGGAFGKRAQAEEERYFR | 94.1% | –
SEQ ID NO: 32: Shortened substance (8-35) amino acid Ala substituted (27) VDRGAGSIREAGGAFGKREAAEEERYFR | 89.5% | –
SEQ ID NO: 33: Shortened substance (8-35) amino acid Ala substituted (29) VDRGAGSIREAGGAFGKREQAAEERYFR | 96.7% | –
SEQ ID NO: 34: Shortened substance (8-35) amino acid Ala substituted (30) VDRGAGSIREAGGAFGKREQAEAERYFR | 94.0% | –
SEQ ID NO: 35: Shortened substance (8-35) amino acid Ala substituted (31) VDRGAGSIREAGGAFGKREQAEEARYFR | 157.9% | –
SEQ ID NO: 36: Shortened substance (8-35) amino acid Ala substituted (32) VDRGAGSIREAGGAFGKREQAEEEAYFR | 426.0% | –
SEQ ID NO: 37: Shortened substance (8-35) amino acid Ala substituted (33) VDRGAGSIREAGGAFGKREQAEEERAFR | 145.8% | –
SEQ ID NO: 38: Shortened substance (8-35) amino acid Ala substituted (34) VDRGAGSIREAGGAFGKREQAEEERYAR | 92.1% | –
SEQ ID NO: 39: Shortened substance (8-35) amino acid Ala substituted (35) VDRGAGSIREAGGAFGKREQAEEERYFA | 109.6% | –
